Assay: soluble on expression in E. coli; label from the status in PepcDB or PDB records
With “MVDIANEVGASESAIPPLKMLLLEGARQAALEAGLQNNSGILADTTFGQQALNDVTGQGWWIGRPVEMPGSYPLKLEHGDIGSQLVSWPQEHVVKCLVFYHPLDAESVRLEQEALIDEVYRACCQSGHDLLLEVILPRDAADQNEQYYPQIVERFYQLGILPDWWKLPPLSPDRWREISQHIEHYDPECRGILILGLDAPESELKSGFAAAADMPWVKGFAVGRTIFGEPSRQWLGGQLNDEQLIATVKQKYRMLIDYWREYRPAR” the “soluble on expression in E. coli” value was “not soluble”. In the case of “MSLDFNDEIYRELNRICASLSQQCSTYQPEFRTCLDAAFQALRGGKLIRPRMLLGLYNTLVDDDIEVKLNTVLQVAVALELLHFSLLVHDDVIDGDLYRRGKLNFIGQILMHRTPESFAQIQRDPEHLDWAQSNGLLMGNLFLAATHQIFARLDLPHHQRVRLLDLLNHTINDTIVGEFLDVGLSSKAISPNMDIALEMSRLKTATYTFELPMRAAAILAELPQEIETKIGEIGTNLGIAYQLQDDYLSTFGDAAEHGKDAFSDLREGKETTIIAFARDTAKWTDIQDNFGSADLSTSQAERIQHLLIQCGAKNHSLNAISDHLNICRSMIKTLSPQVDPKAQNLLLKQVEQLASRKSEGHHHHHH”, the “soluble on expression in E. coli” value is reported as “soluble”. For “MAHHHHHHVDDDDKMVTDQRWLIDKSALVRLTDSPDMEIWSNRIERGLVHITGVTRLEVGFSAECGEIARREFREPPLSAMPVEYLTPRIEDRALEVQTLLADRGHHRGPSIPDLLIAATAELSGLTVLHVDKDFDAIAALTGQKTERLTHRPPSA”, the “soluble on expression in E. coli” value was “soluble”. With “MSTSEMLELNRTIDRLRRAVGSLRSMYGDAASVRRLSNDLERLEIDARELDSSPPNVVHREPVERIKVSDTPYDASMWLGIDDEGLGGLHYERG” the “soluble on expression in E. coli” value was “not soluble”. In the case of “MGSDKIHHHHHHMTTSYTITCSRPTNYGAVLQTYGLNTALRKMGVDAKVLDYNPKYYYTSTQPLPIRMVRAVVRFPDLTKGRKVFGKFLEDYVPMSAKTYRTLAEIEADVPQADVYICGSDQIWNCKNKLNGKDDAFFLSFAPAKARKVAYAASIAMPEIPNNQKTRYHRLISDFDAVSVREPSSVPMLEDLGIDNVQSVIDPVFLLERNDWDVIADASDFVPTEDYVLVYGYNRQKDVYAYARRLAKKLGVKVYTIGTAIEDYTLDQDRYFWNASPNTFVNLVRNAKAVVTNSFHGTVFSIVYNKPFHFFTVKQTTNSRMLDLLDSLTLKDRHVVGEELLSNDIDYDRPNQLLAEAKKRSLGFLQTNVASYVSENKPMKG”, the “soluble on expression in E. coli” value is reported as “not soluble”. With “STQFINKLYASYLREKAYLTAQKHWEKDEIDEQSYQIIQRKYDELLPEAHEILLNMDSLSEVRDTLNKYLTQHQQALLIAGEDSVPFSFKYKDQLGAALYYPDNEGNFIVLVMSRNVYGAEIKE” the “soluble on expression in E. coli” value was “not soluble”. With “MNEEVRELERLVPAAATGDKTALQRIISIVYPQVLRYARTRLSGGRHPTPEDVAQEICLAVATSIAKFVDQGKPFMAFVYGIASNKVADAHRLYSRDLSNPTDEVPETEIDNDTPESFALLAAGSNRVQQLLDLLGDKPREILTLRVFVGLSAEETAEIVGSTPGAVRVAQHRALATLRKAIEQETGE” the “soluble on expression in E. coli” value was “not soluble”. With “MGSDKIHHHHHHMTQLELLLERIIDRVNVNLRHQKFDVGDYVRRQTPHLHYSKFYAFYGLSADDPVHFHFKNSSLAGSYLLGRVNVLHSALYKSDIRGDELKRKGQHFVCDGKMIPLHDDEVITIKDSFLNKTLVHSNSHDPESPEEFTIRNTVAMPYANIHGSLTEGSFIGSFATVDLSTIHNSVVRYFSYVQTGELVGKCVEPGQIWIKSGDELEFHYSFDKAILDKYISQEAGSCPTGVLMEFVEVRQEDFEEVFASGHMASGAGSASGASVSGYAVIKGDTVIGENVLVSQRAYLDNAWMGKGSNAQENCYIINSRLERNCVTAHGGKIINAHLGDMIFTGFNSFLQGSESSPLKIGDGCVVMPHTIIDLEEPLEIPAGHLVWGYIRNKADLAAHSISFEEFAKVDGEVTMGRMTFRGKGGPFLDSFKKRIKRILSENGAFFDGSEGTGHAQKGKNFTFNIIQPYQDGDPRGMYPTILIQPNNGS” the “soluble on expression in E. coli” value was “not soluble”. In the case of “MAHHHHHHMVLYIIGLGLGDEKDITIKGKELIEKSDVVYLETYTSILFVSKDVLEETYKKSIEEVDRDFAEENCDKILDEAKNKKVSFLVVGDPLCATTHHDIILRAKKKNIDVEIIHNTSIISAIGECGMQLYNFGQIVSIPYFEDNYKPTSYYDKIYINLKNNFHTLCLLDIKVKERTVENIMRNKKIYEPPRFMTINDSIEQLLYCEHIHKKNIITKNTLGIAIIQIGTDNQQIISGDLLTLKDISYNKPLHSLIICAPTLHDIEKEYFDLYHYNNMKK”, the “soluble on expression in E. coli” value is reported as “not soluble”. For “MNDEQQNSNQSENTKKPFFQSLFGRFFQGELKNREELVEVIRDSEQNDLIDQNTREMIEGVMEIAELRVRDIMIPRSQIIFIEDQQDLNTCLNTIIESAHSRFPVIADADDRDNIVGILHAKDLLKFLREDAEVFDLSSLLRPVVIVPESKRVDRMLKDFRSERFHMAIVVDEFGAVSGLVTIEDILEQIVGDIEDEFDEEEIADIRQLSRHTYAVRALTDIDDFNAQFNTDFDDEEVDTIGGLIMQTFGYLPKRGEEIILKNLQFKVTSADSRRLIQLRVTVPDEHLAEMNNVDEKSELEHHHHHH”, the “soluble on expression in E. coli” value was “not soluble”. With TPGDRTGTSKCRKAGCVYFGTPENKGFCTLCFIEY the “soluble on expression in E. coli” value was “soluble”. In the case of “MEYSRDSAEMMMETKRNVYSLEDNKIKRHKSSDLSFSSKERKDKLAERISALQQLVSPYGKTDTASVLLEGMQYIQFLQEQVKVLSAPYLQATPSTTEEEVEEYSLRSKGLCLVPLEYTSEVAQTNGADIWAPVKTPTSSHAFNLSSSNSPFQ”, the “soluble on expression in E. coli” value is reported as “not soluble”. With “MTEYLSVSALTKYIKYKFDQDPHLQSVLIKGELSNFKKHSSGHLYFNVKDKESVISAMMFKGNASKLGFEPKEGDEVLIEARVSVYERRGNYQIYVNKMQLDGIGNLYQKLELLKKKLKKEGYFNQSNKKLIPKYPKKIAVLTASTGAAIRDIHSTINNRYPLVEQIQISTLVQGTQARQDIIEKIQYADSLDVDTIIVGRGGGSIEDLWNFNEEDVVKTIFNCQTPIISAVGHETDFTLSDFVADVRAATPTQAAVIATPDQYELLQQIKQYEYTLSRYIKQYIEHQKKQLNHISSYYKFKQPSLLYDQQIQKRDELERQLNHLLNTKVEKSKHHLKLLQQSFNFKNLNQQITQEKQSIYQLHSRLSKIMSNNITNLKTVLKNKLESLNNLSPTNTMLRGYAIVNKDNEVVTSTHKLNENDQISLTMKDGSVDATVKKVRCNDE” the “soluble on expression in E. coli” value was “not soluble”. In the case of “MNTLLLDKGEQQVHLNLKYANRHGLIAGATGTGKTVSLMSLAEGFSRQGVPVFITDIKGDISGLGVAGTPNDKLLQRAAEIGVEGYQTEANPVVFWDLAGIQGHPLRTTVSEMGPTLLGRILELNDTQSSILDIVFQLADDQGLLLLDLDDLRAMLNLVADERKDISAKYGLISAQSLAAIQRSVLGLERDGGKDFFGEPALQLEDLMRTNLQGRGIINLLAANKLILTPNLYSSFLLWLLSELFENLPEVGDLDKPKLVFFIDEAHLLFEGCPASLLKRIEQIMRLIRSKGVGVYFCSQFPDDIPNEILGQLGNRIQHALRAYTPRDQKAVKTAAETFVSNPKLVVSEVISQLAVGEALVSTLAEKGVPTMVERTLIAPPRCRMGPANPEELTAIRALSPIGGKYDTLINRESAYERLNQRHTDETNGVNTAQPAANEAEQGWLSELIFGNKRRQGLAETLSKQAARTVGNQLGKQILRGLLGGILGKSTRR”, the “soluble on expression in E. coli” value is reported as “not soluble”. With “SYVQDYRSPFIASVSDQHGVVYITENKNKTVVIPCLGSISNLNVSLCARYPEKRFVPDGNRISWDSKKGFTIPSYMISYAGMVFCEAKINDESYQSIMYIVVVVGYRIYDVVLSPSHGIELSVGEKLVLNCTARTELNVGIDFNWEYPSSKHQHKKLVNRDLKTQSGSEMKKFLSTLTIDGVTRSDQGLYTCAASSGLMTKKNSTFVRVHEKPFVAFGSG” the “soluble on expression in E. coli” value was “soluble”. In the case of “MGHHHHHHSHMASRWQNMGTSVRRRSLQHQEQLEDSKELQPVVSHQETSVGALGSLCRQFQRRLPLRAVNLNLRAGPSWKRLETPEPGQQGLQAAARSAKSALGAVSQRIQESCQSGTKWLVETQVKARRRKRGAQKGSGSPTHSLSQKSTRLSGAAPAHSAADPWEKEHHRLSVRMGSHAHPLRRSRREAAFRSPYSSTEPLCSPSESDSDLEPVGAGIQHLQKLSQELDEAIMAEERKQALSDRQGFILKDVYASP”, the “soluble on expression in E. coli” value is reported as “not soluble”. For “MARLARFWDSLENENLFDIVPQPPKSTVTRFHQQWLSSLANARDDELQTILYAKPLLPTPESIVQLPDEEYYGAKKISVGYR”, the “soluble on expression in E. coli” value was “not soluble”.
